Data: article doi:10.1101/2021.04.14.439868

B1: vvpE promoter (AB324/AB325) (dsDNA)
DNA 1: ATAAATCAAATTTGTAACTTTATTTCTGAGATGACTGTCCCATTTATCTTATTGATAAATCTGCGTAAAAAAGAAAAAGCACAATTTTATTACTAGTGTTT
DNA 2: AAACACTAGTAATAAAATTGTGCTTTTTCTTTTTTACGCAGATTTATCAATAAGATAAATGGGACAGTCATCTCAGAAATAAAGTTACAAATTTGATTTAT
B2: luxC promoter site B (JDN54/JDN55) (dsDNA)
DNA 1: TTACTTATTTATAGTGTTACAAATAACATTA
DNA 2: TAATGTTATTTGTAACACTATAAATAAGTAA

Columns and labels:
SmcR = molecular target: T1, SmcR (Vibrio vulnificus ATCC 27562, UniProt Q9L8G8 1-205); assay: EMSA
T1 sequence: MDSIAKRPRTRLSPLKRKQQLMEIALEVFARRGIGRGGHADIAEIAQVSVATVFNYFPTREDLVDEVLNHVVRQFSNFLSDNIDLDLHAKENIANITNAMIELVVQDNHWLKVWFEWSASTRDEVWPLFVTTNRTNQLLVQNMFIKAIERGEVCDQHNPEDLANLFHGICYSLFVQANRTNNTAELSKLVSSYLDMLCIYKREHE

LuxR = molecular target: T2, LuxR (Vibrio campbellii BB120, UniProt P21308 1-205); assay: EMSA
T2 sequence: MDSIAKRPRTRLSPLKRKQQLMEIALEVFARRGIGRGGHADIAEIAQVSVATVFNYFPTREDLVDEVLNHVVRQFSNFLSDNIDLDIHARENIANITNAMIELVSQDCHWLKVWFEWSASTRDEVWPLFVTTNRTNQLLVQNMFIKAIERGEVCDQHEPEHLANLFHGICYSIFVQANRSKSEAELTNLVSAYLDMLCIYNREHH

| Binder | binding result (SmcR) | binding result (LuxR) |
| --- | --- | --- |
| B1 | binds |  |
| B2 |  | binds |
